The text below walks through data of patent publication US20220112288A1 (published 2022).

B1: 75110_02I16A (antibody, V domains shown)
VH: QVQLQQWGAGLLKPSETLSLTCDVYGGSFSGYYWTWIRQPPGKGLEWIGEINHSGTTNSNPSLKSRVTISVDTSKSQFSLRLSSVTAADTAVYFCTRELNWFDPWGQGTLVTVSS
VL: DIQMTQSPSSVSASVGDRVTITCRASQDIANWLAWYQQKPGKAPQLLIYAASSLLGGVPSRFSGSGSGADFTLTISSLHPEDFATYYCQQANSFPYTFGQGTKLEIK
notes: Tested as antibody purified from AlivaMab Mouse hybridoma supernatant (captured by anti-mouse IgG Fc)
B2: 75110_02E08A (antibody, V domains shown)
VH: QVQLQESGPGLVKPSETLSLTCTVSGGSISTYYWTWIRQPAGKGLEWIGRVYTSGDTNYNPSLKSRVAMSLDTSKNQFSLKLSSVTAADTAVYYCARDSGALYSWNYGDAFDIWGQGTMVTVSS
VL: DIQMTQSPSAMSASVGDRVTITCRASQDISNYLAWFQQKPGKVPKRLIYAASSLQSGVPSRFSGSGSGTEFTLTISSLQPEDFATYYCLQHNSYPRTFGQGTKVEIK
notes: as for B1
B3: 75110_01L08A (antibody, V domains shown)
VH: QVQLQESGPGLVKPSETLSLTCTVSGGSISHYYWSWIRQPPGKGLEWIGYIHYSGTTNYNPSLKSRVTISVDTSKNQLSLKLRSVTAADTAVYYCARDQGFSSGGMDVWGQGTTVTVSS
VL: not shown
notes: as for B1
B4: 75110_04F22A (antibody, V domains shown)
VH: EVQLVESGGGLVQPGGSLRLSCAASGFTFSSYDIHWVRQATGKGLEWVSTIGTAGDTYYPGSVKGRFTISRENAKNSLYLQMNSLRAGDTAVYYCARGGYYYYGMDVWGQGTTVTVSS
VL: EIVLTQSPGTLSLSPGERATLSCRASQSVYSSYLAWYQQKPGQAPRLLIYGASSRATGIPDRFSGSGSGTDFTLTISRLEPEDFAVYYCQQFGTSPFTFGPGTKVDIK
notes: as for B1
B5: 75110_01E08A (antibody, V domains shown)
VH: EVQLVESGGGLVQPGGSLRLSCAASGFTFNNYDMHWVRQATGKGLEWVSTIGTAGDTYYPASVKGRFTIYRENAKNSLYLQMNSLRAGDTAVYYCARGGDYYYGMDVWGQGTTVTVSS
VL: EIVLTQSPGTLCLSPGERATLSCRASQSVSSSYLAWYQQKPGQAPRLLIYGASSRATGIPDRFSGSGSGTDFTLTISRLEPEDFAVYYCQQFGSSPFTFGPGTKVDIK
notes: as for B1
B6: 75110_02I18A (antibody, V domains shown)
VH: EVQVVESGGGLVQPGGSLRLSCAASGFTFSSYDMHWVRQATGKGLEWVSTIGTAGDTYYPGSVKGRFTISRENAKNSLYLQMNSLRAGDTAVYYCARGGYYYYGMDVWGQGTTVTVSS
VL: EIVLTQSPGTLSLSPGERATLSCRASQSVSSSYLAWYQQKPGQSPRLLIHGASSRATGIPDRVSGSGSGTDFTLTISRLEPEDFAVYYCQQYGSSPFTFGPGTKVDIK
notes: as for B1
B7: 75110_01J17A (antibody, V domains shown)
VH: EVQLVESGGGLVQPGGSLRLSCAASGFTFSSYDMHWVRQGTGKGLEWVSTIGTADDTYYPGSVKGRFTISRENAENSLYLQMNSLRAGDTAVYYCARGGDYYYGMDVWGQGTTVTVSS
VL: EIVLAQSPGTLSLSPGERATLSCRASQSVYISYLAWYQQKPGQAPRLLIYGASSRATGIPDRFSGSGSGTDFTLTITRLEPEDFAVYYCQQFGSSPFTFGPGTKVDFK
notes: as for B1
B8: 75110_04P06A (antibody, V domains shown)
VH: EVQLVESGGGLVQPGGSLRLSCAASGFTFSNYDMHWVRQATGKGLEWVSTIGTAGDTYYPGSVKGRFTISRENAKNSLYLQMNSLRAGDTAVYYCARGGDYYYGMDVWGQGTTVTVSS
VL: EIVLTQSPDTLSLSPGERATLSCRASQSLSSVYLAWYQQKPGQAPRLLIYGASSRATGIPDRFSGSGSGTDFTLTINRLEPEDFVVYYCQQYGSSPFTFGPGTKVDIK
notes: as for B1
B9: 75110_01N04A (antibody, V domains shown)
VH: EVQLVESGGGLVQPGGSLRLSCAASGFTFSNYDMHWVRQATGKGLEWVSTIGTAGDTYYPGSVKGRFTISRENAKNSLYLQMNSLRAGDTAVYYCARGGDFYYGLDVWGQGTTVTVSS
VL: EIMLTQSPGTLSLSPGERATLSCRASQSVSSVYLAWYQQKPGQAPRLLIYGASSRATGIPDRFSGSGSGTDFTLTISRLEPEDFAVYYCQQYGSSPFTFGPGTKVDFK
notes: as for B1
B10: 75110_05F19A (antibody, V domains shown)
VH: EVQLVESGGGLVQPGGSLRLSCAASGFTFSNYDVHWVRQPTGKGLEWVSTIGTAGDTYYPGSVKGRFTISRENAKNSLYLQMNSLRAGDTAVYYCARGGYDYYGLDVWGQGTTVTVSS
VL: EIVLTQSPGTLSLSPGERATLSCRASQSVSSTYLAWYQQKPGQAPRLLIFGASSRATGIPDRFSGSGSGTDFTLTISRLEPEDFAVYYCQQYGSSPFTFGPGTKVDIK
notes: as for B1
B11: 75110_01K10A (antibody, V domains shown)
VH: EVQLVESGGALVQPGGSLRLSCAASGFTFRNYDMHWVRQATGKGLEWVSTIGTAGDTYYPGSVKGRFTISRENAKNSLYLQMNSLRAGDTAVYYCARGGDYYYGMDVWGQGTTVTVSS
VL: EIVLTQSPDTLSLSPGERATLSCRASQSLSSVYLAWYQQKPGQAPRLLIYGASSRATGIPDRFSGTGSGTDFTLTISRLEPEDFAVYYCQQYGSSPFTFGPGTKVDIK
notes: as for B1
B12: 75110_01G11A (antibody, V domains shown)
VH: EVQLVESGGGLVQPGGSLRLSCAASGFTFSSYDMHWVRQATGKGLEWVSTIGTAGDTYYPGSVKGRFTISRENARNSLFLQMNSLRAGDTAVYYCARGGDYYYGMDVWGQGTTVTVSS
VL: EIVLTQSPGTLSLFPGERATLSCRASQNTYSSYLAWYQQKPGQAPRLLIYGASNRATGIPDRFSGSGSGTDFTLTISRLEPEDFAVYYCQQHGTSPFTFGPGTKVDIK
notes: as for B1
B13: 75110_01D24A (antibody, V domains shown)
VH: QVQLQQWGAGLLKPSETLSLTCAVYGGSFSGYYWSWIRQPPGKGLEWIGEINHSGSTNYNPSLKSRVTISVDTSENQFSLKLNSVTAADTAVYYCARLVNWFDPWGQGTLVTVSS
VL: EIQMTQSPSSVSASVGDRVTITCRASQDISNWLAWYQQKPGKAPNLLIFAASSLQTGVPSRFSGSGSGTDFTLTISSLQPDDFATYYCQQANSFPYSFGQGTNLGIK
notes: as for B1
B14: 75110_01H18A (antibody, V domains shown)
VH: QVQLQQWGAGLLKPSETLSLTCAVYGGSFSGYYWSWIRQSPGKGLEWIGEINQSGSTNYNPSLKSRVTISVDTSKNQFSLKLSSVTAADTAVYYCARVINWFDSWGQGTLVTVSS
VL: DIQMTQSPSSVSASVGDRVTITCRASQGISSWLAWYQQKPGKAPKLLIYAASSFQSGVPSRFSGSGSGTDFTLTISSLQTEDFATYYCQQANSFPYTFGQGTRLEIK
notes: as for B1
B15: 75110_03L12A (antibody, V domains shown)
VH: QVQLQQWGAGLLKPSETLSLTCAVYGGSFSGYYWSWIRQPPGKGLEWIGEINHSGSTNYNPSLKSRVTISVDTSENQFSLTLISVTAADTAVYYCVRLINWFDPWGQGTLVTVSS
VL: DIQMTQSPSSVSASVGDRVTITCRASQDISNWLAWYQQKPGKAPKLLIFAASSLQSGVPSRFSGSGSGTDFTLTISSLQPDDFATYYCQQANSFPYTFGQGTNLGIK
notes: as for B1
B16: 75110_03C01A (antibody, V domains shown)
VH: QVQLQQWGAGLLKPSETLSLTCAVYGGSFSGYYWSWIRQSPGKGLEWIGEINQSGSTNYNPSLKSRVTISVDTSKDQFSLKLSSVTAADTAVYYCARVINWFDSWGQGSLVTVSS
VL: DIQMTQSPSSVSASVGDRVTITCRASQGISSWLAWYQQKPGNAPKLLIYDASSFQSGVPSRFSGSGSGTDFTLTISSLQTEDFATYYCQQANSFPYTFGQGTKLEIK
notes: as for B1
B17: 75110_01J09A (antibody, V domains shown)
VH: EVQLVESGGGLVQPGGSLRLSCVASGFTFSSYWMSWVRQAPGKGLEWVANTKEDGSDKYYVDSVKGRFTICRDNAKNSLYLQMNSLRAEDTAVYYCAREGGQWLALDYWGQGTLVTVSS
VL: DIQMTQSPSSVSASVGDRVTINCRASQGISSWLAWYQQKPGKAPNLLIFGASSLQSGVPSRFSGSGFGTDFSLTITTLQPEDFATYHCQQANSFPWTFGQGTKVEIK
notes: as for B1
B18: 75110_02E22A (antibody, V domains shown)
VH: QVQLQESGPGLVKPSETLSLTCTVSGGSISSFYWSWIRQPAGKGLEWIGRIYTSGSTNYNPSLKSRVTMSVDTSKNQFSLKLSSVTAADTAVYYCARELEKRNYYGMDVWGQGTTVTVSS
VL: DIQMTQSPSSLSASVGDRVTITCQASHDISNYLNWYQQKPGKAPKLLIFDASTLETGVPSRFSGSGSGTYFTFTIRSLQPEDIATYYCQQYDSLPLTFGGGTKVEIK
notes: as for B1

The test concerns the target T1, Recombinant human CD4 (R&D Systems, Cat. 10327-CD) (human, UniProt P01730 26-390, limits assumed).
T1 construct: Soluble analyte in the Octet assay
Briefly: BLI Octet, mAb on anti-mouse Fc sensor, CD4 100/50/25 nM, 1:1 global fit.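 Further: antibodies loaded at 10 µg/mL, an unrelated mouse-derived antibody served as internal reference control, association and dissociation phases fitted after Savitzky-Golay smoothing.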
Turning to B1, the equilibrium dissociation constant (Kd) – broadly, the constant that tells how readily two partners part at equilibrium – was determined as 3.5 nM; the Response was 0.22; the dissociation rate constant (koff) (commonly the first-order rate constant of dissociation) was found to be 0.0004 s⁻¹; the association rate constant (kon) (usually the rate constant with which the complex forms) was determined as 120000 M⁻¹ s⁻¹.

As to B2, the Kd turned out to be 2.2 nM, the Response came out at 0.11, the koff was found to be 0.00061 s⁻¹ and the kon came to 280000 M⁻¹ s⁻¹.

In the case of B3, the Kd was determined as 4.1 nM, the Response is 0.19, the koff amounted to 0.0016 s⁻¹ and the kon stood at 390000 M⁻¹ s⁻¹.

For B4, the Kd was 5.9 nM, the Response stood at 0.05, the koff came to 0.00021 s⁻¹ and the kon came to 35000 M⁻¹ s⁻¹.

In the case of B5, the Kd was 0.26 nM, the Response was determined as 0.14, the dissociation rate constant (koff) was 2e-05 s⁻¹ and the on-rate (kon) is 77000 M⁻¹ s⁻¹.

For B6, the dissociation constant Kd came to 66 nM, the Response was found to be 0.05, the koff was 8.6e-05 s⁻¹ and the kon was 1300 M⁻¹ s⁻¹.

On to B7, for which the Kd was 2.8 nM, the Response came out at 0.09, the koff was determined as 0.00012 s⁻¹ and the kon amounted to 43000 M⁻¹ s⁻¹.

With B8, the Kd was under 0.001 nM, the Response amounted to 0.07, the koff was under 1e-07 s⁻¹ and the on-rate (kon) was 24000 M⁻¹ s⁻¹.

On to B9, for which the Kd came out at 2.1 nM, the Response amounted to 0.08, the koff worked out at 6.1e-05 s⁻¹ and the on-rate (kon) came to 28000 M⁻¹ s⁻¹.

Take B10: the Kd was under 0.001 nM, the Response was determined as 0.05, the off-rate (koff) was under 1e-07 s⁻¹ and the kon is 19000 M⁻¹ s⁻¹.

As to B11, the Kd was under 0.001 nM, the Response came out at 0.05, the off-rate (koff) was under 1e-07 s⁻¹ and the on-rate constant (kon) amounted to 23000 M⁻¹ s⁻¹.

As to B12, the Kd stood at 1.7 nM, the Response came to 0.11, the off-rate constant (koff) is 7.2e-05 s⁻¹ and the on-rate (kon) turned out to be 42000 M⁻¹ s⁻¹.

Consider B13, for which the Kd amounted to 13 nM, the Response was determined as 0.27, the dissociation rate constant (koff) amounted to 0.0017 s⁻¹ and the association rate constant (kon) worked out at 130000 M⁻¹ s⁻¹.

For B14, the dissociation constant (Kd) worked out at 16 nM, the Response was found to be 0.23, the koff was found to be 0.0016 s⁻¹ and the association rate constant (kon) is 99000 M⁻¹ s⁻¹.

As for B15, the equilibrium dissociation constant (Kd) was 5.5 nM, the Response came out at 0.22, the koff is 0.00076 s⁻¹ and the kon came to 140000 M⁻¹ s⁻¹.

As for B16, the Kd is 3 nM, the Response is 0.23, the off-rate constant (koff) turned out to be 0.0004 s⁻¹ and the on-rate (kon) was determined as 140000 M⁻¹ s⁻¹.

In the case of B17, the Kd was 130 nM, the Response was found to be 0.12, the dissociation rate constant (koff) came out at 0.0048 s⁻¹ and the on-rate constant (kon) was 37000 M⁻¹ s⁻¹.

Turning to B18, the Kd was 50 nM, the Response amounted to 0.16, the koff came to 0.0031 s⁻¹ and the kon came to 63000 M⁻¹ s⁻¹.
